Results reported in patent publication US20260191905A1 (MODERNATX, published 2026).
One block for each binder: values may come before it.

Key:
[1] = molecular target: T1, human GPC3 recombinant protein (human, UniProt P51654 25-559); assay: SPR (Biacore), VHH-His over human GPC3 on CM5; fit 87.8 - 17.34 nM; Rmax 38.9 RU; Chi2 0.636
T1 construct: also called huGPC3; Human GPC3 protein
Experimental: (§1) Affinities of the 19 VHH-His tagged domains were then determined by BiaCore assay. Human GPC3 protein (Sino biological cat. nr. 10088-H08H-500) was immobilized on CM5 sensor chip (GE Healthcare) as antigen. Purified VHH-His tagged domains were diluted in BiaCore buffer (0.01 M HEPES pH 7.4, 0.15 M NaCl, 3 mM EDTA, 0.05% P20) to 500 nM and injected over 2 minutes at […] followed by a half dilution series to 7.8 nM. 10 μl of 10 mM NaOH/1M NaCl were injected between samples and then off-rate wash was 5 minutes.

[2] = molecular target: T1, human GPC3 recombinant protein; assay: SPR (Biacore), summary table; Chi2 0.636; Profile 'Very good'
[3] = molecular target: T1, human GPC3 recombinant protein; assay: SPR (Biacore) off-rate screen, periplasmic extract over human GPC3 on CM5; R0 107.0
Experimental: (§2) Human GPC3 protein in acetate buffer, pH 5.0, was immobilized in a sensor chip CM5 (GE Healthcare; Cat. Nr. BR-1005-30; Lot. Nr.10245232) and successful immobilization was confirmed by using a commercially available human GPC3 antibody (R&D cat. nr. MAB2119) and the anti-GPC3-VHH-Fc (both at 10 μg/mL). Periplasmic extracts from the MP were diluted in Biacore Buffer (0.01 M HEPES pH 7.4, 0.15 M NaCl, 3 mM EDTA, 0.05% P20) and injected over 2 minutes at 30 μL/min. 10 μl of 10 mM NaOH/1M NaCl were injected between samples and off-rates were measured over 5 minutes. Off-rate ([…]) were calculated using BIACORE software 1:1 interaction Langmuir binding model.

[4] = molecular target: T1, human GPC3 recombinant protein; assay: SPR (Biacore) off-rate screen, periplasmic extract over human GPC3 on CM5; R0 45.4
Experimental: as §2

[5] = molecular target: T2, human GPC3 on HepG2 cells (human, UniProt P51654 25-554); assay: FACS, periplasmic extract 1:5 + anti-c-myc + GAM-APC on HepG2, well C3; same on A-431: 697.44
T2 construct: whole, on cells
T2 sequence (P51654 25-554 limits assumed): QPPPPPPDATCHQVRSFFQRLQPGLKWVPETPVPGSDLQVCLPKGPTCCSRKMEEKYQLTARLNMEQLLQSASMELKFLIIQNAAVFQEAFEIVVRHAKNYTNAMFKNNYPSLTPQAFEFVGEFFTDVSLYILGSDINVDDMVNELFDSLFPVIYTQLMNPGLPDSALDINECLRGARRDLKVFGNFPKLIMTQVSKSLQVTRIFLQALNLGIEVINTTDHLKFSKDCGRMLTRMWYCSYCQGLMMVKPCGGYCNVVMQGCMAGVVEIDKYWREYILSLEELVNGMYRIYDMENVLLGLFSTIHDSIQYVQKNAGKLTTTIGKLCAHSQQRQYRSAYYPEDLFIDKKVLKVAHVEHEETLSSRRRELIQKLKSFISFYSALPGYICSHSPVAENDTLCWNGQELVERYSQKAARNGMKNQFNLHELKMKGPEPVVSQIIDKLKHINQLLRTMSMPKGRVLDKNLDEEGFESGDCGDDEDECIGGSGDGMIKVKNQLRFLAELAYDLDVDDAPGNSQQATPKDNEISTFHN

[6] = molecular target: T1, human GPC3 recombinant protein; assay: SPR (Biacore), summary table; Chi2 0.43; Profile 'Good'; FIG. 18 prints 6.64E-09
Experimental: as §1

[7] = molecular target: T1, human GPC3 recombinant protein; assay: SPR (Biacore), VHH-His over human GPC3 on CM5; fit 250 - 7.8 nM; Rmax 9.47 RU; Chi2 0.43
Experimental: as §1

[8] = molecular target: T1, human GPC3 recombinant protein; assay: SPR (Biacore) off-rate screen, periplasmic extract over human GPC3 on CM5; R0 31.6
Experimental: as §2

[9] = molecular target: T2, human GPC3 on HepG2 cells; assay: FACS, phage-displayed clone on HepG2, well C3; same clone on A-431 (no GPC3): 1.31%
[10] = molecular target: T2, human GPC3 on HepG2 cells; assay: FACS, phage-displayed clone on HepG2, well C3; same clone on A-431 (no GPC3): 1100.37
[11] = molecular target: T2, human GPC3 on HepG2 cells; assay: FACS, periplasmic extract 1:5 + anti-c-myc + GAM-APC on HepG2, well C3; same on A-431: 0.12%
[12] = molecular target: T1, human GPC3 recombinant protein; assay: SPR (Biacore) off-rate screen, periplasmic extract over human GPC3 on CM5; R0 47.2
Experimental: as §2

[13] = molecular target: T2, human GPC3 on HepG2 cells; assay: FACS, periplasmic extract 1:5 + anti-c-myc + GAM-APC on HepG2, well D3; same on A-431: 0.36%
[14] = molecular target: T1, human GPC3 recombinant protein; assay: SPR (Biacore), VHH-His over human GPC3 on CM5; fit 197.5 - 26.0 nM; Rmax 14.1 RU; Chi2 0.59
Experimental: as §1

[15] = molecular target: T2, human GPC3 on HepG2 cells; assay: FACS, phage-displayed clone on HepG2, well D3; same clone on A-431 (no GPC3): 1.16%
[16] = molecular target: T1, human GPC3 recombinant protein; assay: SPR (Biacore), summary table; Chi2 0.59; Profile 'Good'; FIG. 18 prints 5.24E-09
Experimental: as §1

[17] = molecular target: T2, human GPC3 on HepG2 cells; assay: FACS, phage-displayed clone on HepG2, well D3; same clone on A-431 (no GPC3): 1102.21
[18] = molecular target: T2, human GPC3 on HepG2 cells; assay: FACS, periplasmic extract 1:5 + anti-c-myc + GAM-APC on HepG2, well D3; same on A-431: 802.83
[19] = molecular target: T1, human GPC3 recombinant protein; assay: SPR (Biacore) off-rate screen, periplasmic extract over human GPC3 on CM5; R0 24.6
Experimental: as §2

[20] = molecular target: T1, human GPC3 recombinant protein; assay: SPR (Biacore) off-rate screen, periplasmic extract over human GPC3 on CM5; R0 56.5
Experimental: as §2

[21] = molecular target: T2, human GPC3 on HepG2 cells; assay: FACS, phage-displayed clone on HepG2, well F3; same clone on A-431 (no GPC3): 1412.11
[22] = molecular target: T1, human GPC3 recombinant protein; assay: SPR (Biacore), VHH-His over human GPC3 on CM5; fit 131.7 - 17.34 nM; Rmax 9.97 RU; Chi2 0.266
Experimental: as §1

[23] = molecular target: T2, human GPC3 on HepG2 cells; assay: FACS, periplasmic extract 1:5 + anti-c-myc + GAM-APC on HepG2, well F3; same on A-431: 0.18%
[24] = molecular target: T1, human GPC3 recombinant protein; assay: SPR (Biacore) off-rate screen, periplasmic extract over human GPC3 on CM5; R0 39.2
Experimental: as §2

[25] = molecular target: T1, human GPC3 recombinant protein; assay: SPR (Biacore), summary table; Chi2 0.266; Profile 'Good'
Experimental: as §1

[26] = molecular target: T2, human GPC3 on HepG2 cells; assay: FACS, periplasmic extract 1:5 + anti-c-myc + GAM-APC on HepG2, well F3; same on A-431: 965.7
[27] = molecular target: T2, human GPC3 on HepG2 cells; assay: FACS, phage-displayed clone on HepG2, well F3; same clone on A-431 (no GPC3): 1.39%
[28] = molecular target: T1, human GPC3 recombinant protein; assay: SPR (Biacore) off-rate screen, periplasmic extract over human GPC3 on CM5; R0 30.5
Experimental: as §2

[29] = molecular target: T1, human GPC3 recombinant protein; assay: SPR (Biacore) off-rate screen, periplasmic extract over human GPC3 on CM5; R0 6.06; asterisk not explained on the sheet
Experimental: as §2

[30] = molecular target: T1, human GPC3 recombinant protein; assay: SPR (Biacore) off-rate screen, periplasmic extract over human GPC3 on CM5; R0 41.0
Experimental: as §2

T1 sequence (P51654 25-559 limits assumed): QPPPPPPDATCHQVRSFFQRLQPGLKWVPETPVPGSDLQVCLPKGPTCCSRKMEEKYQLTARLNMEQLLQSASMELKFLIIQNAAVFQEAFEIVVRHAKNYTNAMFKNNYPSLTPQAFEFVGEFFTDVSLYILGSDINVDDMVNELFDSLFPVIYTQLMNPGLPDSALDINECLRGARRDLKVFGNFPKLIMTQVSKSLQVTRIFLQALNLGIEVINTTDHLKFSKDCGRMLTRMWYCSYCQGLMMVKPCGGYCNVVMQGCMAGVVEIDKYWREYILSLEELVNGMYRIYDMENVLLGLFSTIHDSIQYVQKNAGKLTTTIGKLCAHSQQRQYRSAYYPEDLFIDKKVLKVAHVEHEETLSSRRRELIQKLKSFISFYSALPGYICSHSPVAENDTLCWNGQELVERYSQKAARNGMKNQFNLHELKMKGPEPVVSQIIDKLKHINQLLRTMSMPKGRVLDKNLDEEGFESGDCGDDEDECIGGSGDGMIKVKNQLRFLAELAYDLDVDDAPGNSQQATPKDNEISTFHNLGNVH

B4: anti-GPC3 VHH-His tagged domain VHH5 (VHH)
VHH: EVQLVESGGGLVQPGGSLRLSCAASGFTFSSYAMSWVRQAPGKEPEWVSSISGGGSSAYYADSLKGRFTISRDNSKNTLYLQMNSLRAEDTAVYYCSRDPRFGEPPFDYWGQGTTVTVSS
notes: Produced from a mammalian expression vector as a His fusion; not shown: His tag
koff [12]: 0.00366 s⁻¹ | % of Binding [13]: 0.5% | Ka [14]: 1.91e+08 M⁻¹ | Kd [14]: 5.24 nM | koff [14]: 0.00253 s⁻¹ | kon [14]: 484000 M⁻¹ s⁻¹ | % of Binding [15]: 74.3% | Kd [16]: 3.68 nM | Mean FL2-A [17]: 57900 | Mean FL4-A [18]: 812

B5: VH24 (VHH)
VHH: EVQLVESGGGLVQPGGSLRLSCAASGFTFSSYAMSWVRQAPGKEPEWVSSISGGGTSTYYADSLEGRFTISRDNSKNTLYLQMNSLRAEDTAVYYCSKDPRFGEPPFDYWGQGTLVTVSS
notes: also called VHH24
koff [19]: 0.00367 s⁻¹

B6: VH22 (VHH)
VHH: EVQLVESGGGLVQPGGSLRLSCAASGFTFSSYAMSWVRQAPGKEPEWVSSISGGGSSTYYADSLKGRFTISRDNSKNTLYLQMDSLRAEDTAVYYCSRDPRFGEPPFDYWGQGTLVTVSS
notes: also called VHH22
koff [20]: 0.00282 s⁻¹

B7: anti-GPC3 VHH-His tagged domain VHH9 (VHH)
VHH: QVQLVESGGGLVQPGGSLRLSCAASGFTFSSYAMSWVRQAPGKEPEWVSSISGGGSSTYYADSLKGRFTISRDNSKNTLYLQMNSLRAEDTAVYYCSRDPRFGEPPLDYWGQGTTVTVSS
notes: as for B4
Mean FL2-A [21]: 130000 | Ka [22]: 1.63e+08 M⁻¹ | Kd [22]: 6.15 nM | koff [22]: 0.00326 s⁻¹ | kon [22]: 530000 M⁻¹ s⁻¹ | % of Binding [23]: 0.52% | koff [24]: 0.0062 s⁻¹ | Kd [25]: 6.15 nM | Mean FL4-A [26]: 1830 | % of Binding [27]: 89%

B9: VH30 (VHH)
VHH: QVQLVESGGGLVQPGGSLRLSCAASGFIFSSYAMSWVRQAPGKEPEWVSSISGGGSSTYYADSLEGRFTISRDNSKNTLYLQMNSLRAEDTAVYYCSKDPRFFEPPFDYWGQGTLVTVSS
notes: also called VHH30
koff [29]: 0.00983 s⁻¹

B10: VH34 (VHH)
VHH: QVQLVESGGGLVRPGGSLRLSCAASGFTFSSYAMSWVRQAPGKEPEWVSSISGGGSSTYYADSLKGRFTISRDNSKNTLYLQMNSLRAEDTAVYYCSRDPRFGEPPFDYWGQGTLVTVSS
notes: also called VHH34
koff [30]: 0.00507 s⁻¹

Further lines, results first:

Ka [1]: 3.66e+08 M⁻¹ | Kd [1]: 2.73 nM | koff [1]: 0.000967 s⁻¹ | kon [1]: 354000 M⁻¹ s⁻¹ | Kd [2]: 2.73 nM | koff [3]: 0.00184 s⁻¹
B1: anti-GPC3 VHH-His tagged domain VHH2 (VHH)
VHH: QVQLVESGGGLVQPGGSLRLSCAASGFTFSNYLMHWVRQAPGKGLEWLSNINSDGSSTYYADSVKGRFTISRDNSKNTLYLQMNSLRAEDTAVYYCTVGAFDYWGQVTTGTVSS
notes: as for B4

koff [4]: 0.00249 s⁻¹
B2: VH20 (VHH)
VHH: EVQLVESGGGLVQPGGSLRLSCAASGFTFSSYAMSWVRQAPGKEPEWISSISGSGSSTYYADSLKGRFTISRDNSKNTLYLQMNSLRAEDTAVYYCSKDPRFGEPPFDYWGQGTTVTVSS
notes: also called VHH20

Mean FL4-A [5]: 915 | Kd [6]: 4.34 nM | Ka [7]: 1.51e+08 M⁻¹ | Kd [7]: 6.64 nM | koff [7]: 0.00197 s⁻¹ | kon [7]: 296000 M⁻¹ s⁻¹ | koff [8]: 0.00221 s⁻¹ | % of Binding [9]: 68.7% | Mean FL2-A [10]: 43500 | % of Binding [11]: 0.64%
B3: anti-GPC3 VHH-His tagged domain VHH6 (VHH)
VHH: QVQLVESGGGLVQPGGSLRLSCAASGFIFSSYAMSWVRQAPGKEPEWVSSISGGGSSTYYADSLEGRFTISRDNSKNTLYLQMNSLRAEDTAVYYCSKDPRFGEPPFDYWGQGTTVTVSS
notes: as for B4

koff [28]: 0.00378 s⁻¹
B8: VH25 (VHH)
VHH: EVQLVESGGGLVQPGGSLRLSCAASGFTFSSYAMSWVRQAPGKESEWVSSISGSGSSTYYADSLKGRFTISRDNSKNTLYLQMNSLRAEDTAVYYCSKDPRFGEPPFDYWGQGTLVTVSS
notes: also called VHH25
